Values quoted from earlier work as cited in article PMC8438204, “Unraveling the Thermodynamics of Ultra-tight Binding of Intrinsically Disordered Proteins” (Frontiers in Molecular Biosciences, 2021).

Target: prothymosin α (Homo sapiens) (UniProt P06454)
Sequence (P06454 2-111): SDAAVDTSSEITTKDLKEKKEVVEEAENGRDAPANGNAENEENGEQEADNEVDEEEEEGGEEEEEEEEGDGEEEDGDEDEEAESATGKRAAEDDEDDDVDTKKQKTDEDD

Chain of histone H1 (P07305 2-194): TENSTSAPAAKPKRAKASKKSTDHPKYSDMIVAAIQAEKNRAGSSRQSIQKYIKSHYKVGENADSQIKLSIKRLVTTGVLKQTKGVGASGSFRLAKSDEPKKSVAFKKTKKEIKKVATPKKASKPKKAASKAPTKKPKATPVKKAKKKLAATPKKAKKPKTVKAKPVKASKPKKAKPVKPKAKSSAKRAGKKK

- Kd: 2 pM
Substance: histone H1 (from UniProt P07305)
